Experimental findings from patent US20100196266A1 are described below.

The target of assay [1] is human leukocyte antigen-DR (HLA-DR) on human lymphoma and leukemia cell lines and human lymphocytes (human). In words: flow cytometry, Jeko-1 (MCL) cells; no mAb 14.3; isotype control. (In general: A flow cytometer gives signals particle by particle.)
Assay [2] has the same target. In words: flow cytometry, 697 (ALL) cells; no mAb 4.9; isotype control.
The target of assay [3] is antigen recognised by L243 on canine lymphocytes and canine lymphoma cells (HLA-DR of the dog) (dog). In words: flow cytometry, canine lymphoma aspirate 150836; none 3.9; control antibody.
Assay [4] addresses human leukocyte antigen-DR (HLA-DR) on human lymphoma and leukemia cell lines and human lymphocytes (human). In words: flow cytometry, Kasumi-1 (AML) cells; no mAb 18.2; isotype control.
The target in assay [5] is antigen recognised by L243 on canine lymphocytes and canine lymphoma cells (HLA-DR of the dog) (dog). In words: flow cytometry, canine lymphoma aspirate 150836; none 3.4; control antibody.
Assay [6] has as its target human leukocyte antigen-DR (HLA-DR) on human lymphoma and leukemia cell lines and human lymphocytes (human). In words: flow cytometry, Granta-519 (MCL) cells; no mAb 15.3; isotype control.
Assay [7] shares this target. In words: flow cytometry, WAC (CLL) cells; no mAb 15.8; isotype control.
The target is the same in assay [8]. In words: flow cytometry, K562 (CML) cells; no mAb 3.2; isotype control.
The target is the same in assay [9]. In words: flow cytometry, GDM-1 (AML) cells; no mAb 16.8; isotype control.
For assay [10] the target is unchanged. In words: indirect flow cytometry, Namalwa cells, FITC-GAM; none 2.91; control antibody.
Assay [11] has as its target antigen recognised by L243 on canine lymphocytes and canine lymphoma cells (HLA-DR of the dog) (dog). In words: flow cytometry, dog lymphoma aspirate; none 3.37; control antibody.
The target in assay [12] is human leukocyte antigen-DR (HLA-DR) on human lymphoma and leukemia cell lines and human lymphocytes (human). In words: flow cytometry, MN60 (ALL) cells; no mAb 8.1; isotype control.
Assay [13] concerns the target antigen recognised by L243 on canine lymphocytes and canine lymphoma cells (HLA-DR of the dog) (dog). In words: flow cytometry, dog lymphoma aspirate; none 3.85; control antibody.
Assay [14] has as its target human leukocyte antigen-DR (HLA-DR) on human lymphoma and leukemia cell lines and human lymphocytes (human). In words: flow cytometry, HC-1 (hairy cell leukemia) cells; no mAb 4.8; isotype control.
Assay [15] shares this target. In words: flow cytometry, REH (ALL) cells; no mAb 3.9; isotype control.
For assay [16] the target is unchanged. In words: flow cytometry, RS4;11 (ALL) cells; no mAb 6.4; isotype control.
Assay [17] shares this target. In words: flow cytometry, MEC-1 (CLL) cells; no mAb 4.7; isotype control.
Assay [18] shares this target. In words: flow cytometry, Kasumi-3 (AML) cells; no mAb 9.6; isotype control.
Assay [19] shares this target. In words: indirect flow cytometry, Namalwa cells, FITC-GAH; none 2.52; irrelevant antibody.
In assay [20] the target is canine CD22 on dog lymphocytes and lymphoma cells (dog). In words: flow cytometry, dog lymphoma aspirate; none 3.24.
Assay [21] has the same target. In words: flow cytometry, canine lymphoma aspirate 150836; none 3.2.
For assay [22] the target is unchanged. In words: flow cytometry, dog lymphoma aspirate; none 4.48.
The target is the same in assay [23]. In words: flow cytometry, canine lymphoma aspirate 150836; none 4.5.
Assay [24] addresses canine CD20 on dog lymphocytes and lymphoma cells (dog) (UniProt Q3C2E2). In words: flow cytometry, dog lymphoma aspirate; none 3.85.
Assay [25] has as its target human CD20 on cells (human) (UniProt P11836). In words: flow cytometry, Kasumi-1 (AML) cells; no mAb 18.2.
Assay [26] has the same target. In words: flow cytometry, Jeko-1 (MCL) cells; no mAb 14.3.
Assay [27] has the same target. In words: flow cytometry, WAC (CLL) cells; no mAb 15.8.
Assay [28] shares this target. In words: flow cytometry, RS4;11 (ALL) cells; no mAb 6.4.
For assay [29] the target is unchanged. In words: flow cytometry, REH (ALL) cells; no mAb 3.9.
The target is the same in assay [30]. In words: flow cytometry, Granta-519 (MCL) cells; no mAb 15.3.
The target is the same in assay [31]. In words: indirect flow cytometry, Namalwa cells, FITC-GAM; none 2.91.
The target in assay [32] is canine CD20 on dog lymphocytes and lymphoma cells (dog) (UniProt Q3C2E2). In words: flow cytometry, dog lymphoma aspirate; none 3.37.
canine CD20 on dog lymphocytes and lymphoma cells (dog), sequence (Q3C2E2 whole entry): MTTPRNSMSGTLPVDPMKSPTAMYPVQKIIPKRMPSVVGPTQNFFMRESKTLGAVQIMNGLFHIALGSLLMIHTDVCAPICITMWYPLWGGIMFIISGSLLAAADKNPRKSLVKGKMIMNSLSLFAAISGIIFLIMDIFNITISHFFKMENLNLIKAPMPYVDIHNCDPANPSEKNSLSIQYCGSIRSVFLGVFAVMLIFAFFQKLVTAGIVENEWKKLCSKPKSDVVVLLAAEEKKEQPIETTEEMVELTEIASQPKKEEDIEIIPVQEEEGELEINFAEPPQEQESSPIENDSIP
Assay [33] shares this target. In words: flow cytometry, canine lymphoma aspirate 150836; none 3.9.
Assay [34] deals with human CD20 on cells (human) (UniProt P11836). In words: flow cytometry, HC-1 (hairy cell leukemia) cells; no mAb 4.8.
human CD20 on cells (human), sequence (P11836 whole entry): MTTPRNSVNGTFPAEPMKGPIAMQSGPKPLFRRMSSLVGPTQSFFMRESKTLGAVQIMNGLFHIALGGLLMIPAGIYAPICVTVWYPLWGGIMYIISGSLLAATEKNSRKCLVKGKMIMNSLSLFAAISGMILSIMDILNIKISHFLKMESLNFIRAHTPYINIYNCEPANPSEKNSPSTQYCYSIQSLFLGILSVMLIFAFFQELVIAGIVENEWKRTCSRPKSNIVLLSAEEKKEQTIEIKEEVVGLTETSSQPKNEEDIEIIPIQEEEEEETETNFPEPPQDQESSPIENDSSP
For assay [35] the target is unchanged. In words: flow cytometry, 697 (ALL) cells; no mAb 4.9.
Assay [36] concerns the target canine CD20 on dog lymphocytes and lymphoma cells (dog) (UniProt Q3C2E2). In words: flow cytometry, canine lymphoma aspirate 150836; none 3.4.
Assay [37] has as its target human CD20 on cells (human) (UniProt P11836). In words: flow cytometry, MN60 (ALL) cells; no mAb 8.1.
Assay [38] has the same target. In words: flow cytometry, GDM-1 (AML) cells; no mAb 16.8.
Assay [39] has the same target. In words: flow cytometry, K562 (CML) cells; no mAb 3.2.
The target is the same in assay [40]. In words: flow cytometry, MEC-1 (CLL) cells; no mAb 4.7.
The target is the same in assay [41]. In words: flow cytometry, Kasumi-3 (AML) cells; no mAb 9.6.
For assay [42], the target named is human leukocyte antigen-DR (HLA-DR) on human lymphoma and leukemia cell lines and human lymphocytes (human). In words: indirect flow cytometry, Namalwa cells, FITC-GAM; none 2.91; irrelevant antibody.
Assay [43] has as its target canine CD22 on dog lymphocytes and lymphoma cells (dog). In words: flow cytometry, dog lymphoma aspirate; none 3.85.
Assay [44] shares this target. In words: flow cytometry, dog lymphoma aspirate; none 3.37.
Assay [45] has the same target. In words: flow cytometry, canine lymphoma aspirate 150836; none 3.9.
Assay [46] shares this target. In words: flow cytometry, canine lymphoma aspirate 150836; none 3.4.

For “Ag8 (P3x63 Ag8, murine myeloma derived mAb) (antibody)”, the mean FL was 17.4 in assay [1]; 5.6 in [2]; 17 in [4]; 3 in assay [5]; 16.9 in assay [6]; 14.4 in assay [7]. For the same substance, the mean FL in assay [8] worked out at 4.1; in [9], 20.1; in assay [11], 3.04; in assay [12] it was 10.5; in assay [14], 3.5; in assay [15], 3.9. The mean FL in assay [16] stood at 8.6; in [17], 6; in assay [18], 15.7. The results for the % Positive in [3] and in assay [13] were 2.8% and 2.81%, respectively. In addition, the GEO MEAN Fluorescence in assay [10] turned out to be 3.64.
In [19], hRS7 (humanized anti-EGP-1) (antibody) gave a GEO MEAN Fluorescence of 2.47.
For the substance “epratuzumab (hLL2, humanized anti-CD22 mAb) (antibody)”, the mean FL in [20] stood at 3.37; in assay [21], 3.4. In addition, the % Positive stood at 4.85% in assay [22] and 4.9% in assay [23].
Turning to 2B8 (murine anti-CD20 mAb) (antibody), the % Positive in assay [24] is 2.61%; in assay [33], 2.6%. Besides, the mean FL worked out at 14.5 in assay [25]; 455 in [26]; 275 in [27]; 11.5 in [28]; 23.5 in assay [29]; 677 in assay [30]. The mean FL in assay [32] is 3.11; in assay [34] it was 42.2; in assay [35] it was 6.9; in assay [36] it was 3.1; in [37], 162; in [38] it was 15.6. For the same substance, the mean FL in assay [39] worked out at 4.3; in assay [40] it was 175; in assay [41], 11. In assay [31], this substance showed a GEO MEAN Fluorescence of 6.16.
murine RS7 (antibody) yielded a GEO MEAN Fluorescence in [42] of 3.39.
As for murine LL2 (anti-human CD22) (antibody), the % Positive in assay [43] amounted to 5.05%; in [45], 5.1%. Moreover, the mean FL stood at 3.73 in assay [44] and 3.7 in assay [46].
